Experimental findings from publication PMC5910400 (2018) are described below.

Test in all cases: BLI
Assay [1] concerns the target T1, CCL4L1 (Homo sapiens).
T1 chain: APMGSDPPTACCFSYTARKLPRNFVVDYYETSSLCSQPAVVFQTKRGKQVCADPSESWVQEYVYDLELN

In assay [2] the target is CCL7 (human, UniProt P80098 24-99).
The target in assay [3] is T2, CCL21 (human, UniProt O00585 24-134).
T2 chain: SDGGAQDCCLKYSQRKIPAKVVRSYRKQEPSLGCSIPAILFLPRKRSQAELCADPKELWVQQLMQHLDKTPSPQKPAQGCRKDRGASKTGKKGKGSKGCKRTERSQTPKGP

Assay [4] deals with T3, CCL1 (human, UniProt P22362 24-96).
T3 chain: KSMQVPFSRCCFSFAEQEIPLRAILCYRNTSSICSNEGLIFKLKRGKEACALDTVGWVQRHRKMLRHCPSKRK

In assay [5] the target is T4, CCL23 (human, UniProt P55773 22-120).
T4 chain: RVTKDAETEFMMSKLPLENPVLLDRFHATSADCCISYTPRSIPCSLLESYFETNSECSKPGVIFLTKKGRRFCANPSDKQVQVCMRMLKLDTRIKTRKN

The target of assay [6] is T5, CCL8 (Homo sapiens).
T5 chain: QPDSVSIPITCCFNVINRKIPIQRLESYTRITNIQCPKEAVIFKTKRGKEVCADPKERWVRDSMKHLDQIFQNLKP

Assay [7] deals with T6, CCL4 (Homo sapiens).
T6 chain: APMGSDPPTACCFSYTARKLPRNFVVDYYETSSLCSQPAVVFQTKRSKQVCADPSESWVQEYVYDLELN

Assay [8] has as its target T7, CCL16 (Homo sapiens).
T7 chain: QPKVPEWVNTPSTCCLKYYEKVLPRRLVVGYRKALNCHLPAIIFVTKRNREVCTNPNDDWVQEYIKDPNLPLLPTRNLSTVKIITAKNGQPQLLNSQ

Assay [9] deals with T8, CCL19 (Homo sapiens).
T8 chain: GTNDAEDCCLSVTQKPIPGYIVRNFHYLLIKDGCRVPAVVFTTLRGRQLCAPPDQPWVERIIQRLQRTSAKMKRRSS

The target of assay [10] is T9, CCL18 (Homo sapiens).
T9 chain: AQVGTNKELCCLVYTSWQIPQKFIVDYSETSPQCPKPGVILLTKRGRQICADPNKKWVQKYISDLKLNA

Assay [11] concerns the target T10, CCL5 (human, UniProt P13501 24-91).
T10 chain: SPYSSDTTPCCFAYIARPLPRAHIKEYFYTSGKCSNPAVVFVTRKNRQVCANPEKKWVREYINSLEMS

In assay [12] the target is T11, CCL17 (Homo sapiens).
T11 chain: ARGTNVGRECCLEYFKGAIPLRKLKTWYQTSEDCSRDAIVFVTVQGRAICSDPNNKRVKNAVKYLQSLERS

Assay [13] has as its target T12, CCL22 (human, UniProt O00626 25-93).
T12 chain: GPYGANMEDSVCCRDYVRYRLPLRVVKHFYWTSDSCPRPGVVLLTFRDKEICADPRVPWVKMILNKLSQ

The target of assay [14] is CCL13 (human, UniProt Q99616 24-98).
The target in assay [15] is T13, CCL27 (Homo sapiens).
T13 chain: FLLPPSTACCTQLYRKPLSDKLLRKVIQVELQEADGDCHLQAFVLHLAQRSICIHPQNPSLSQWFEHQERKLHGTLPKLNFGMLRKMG

In assay [16] the target is T14, CCL24 (Homo sapiens).
T14 chain: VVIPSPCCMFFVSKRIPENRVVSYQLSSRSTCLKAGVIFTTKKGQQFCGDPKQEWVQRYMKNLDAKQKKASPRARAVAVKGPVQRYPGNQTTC

Assay [17] concerns the target T15, CCL3L1 (human, UniProt P16619 24-93).
T15 chain: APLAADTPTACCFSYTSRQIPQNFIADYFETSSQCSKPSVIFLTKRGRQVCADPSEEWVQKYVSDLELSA

For assay [18], the target named is T16, CCL14 (Homo sapiens).
T16 chain: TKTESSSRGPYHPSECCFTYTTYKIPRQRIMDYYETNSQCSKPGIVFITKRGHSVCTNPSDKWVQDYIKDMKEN

Assay [19] has as its target T17, CCL3 (human, UniProt P10147 24-92).
T17 chain: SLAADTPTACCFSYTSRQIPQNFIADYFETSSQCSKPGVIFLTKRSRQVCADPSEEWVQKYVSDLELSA

Assay [20] has as its target T18, CCL15 (Homo sapiens).
T18 chain: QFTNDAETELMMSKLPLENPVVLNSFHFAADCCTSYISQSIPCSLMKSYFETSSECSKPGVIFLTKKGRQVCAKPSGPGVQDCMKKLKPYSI

Assay [21] concerns the target CCL11 (Homo sapiens).

Sequence of CCL13 (Q99616 24-98): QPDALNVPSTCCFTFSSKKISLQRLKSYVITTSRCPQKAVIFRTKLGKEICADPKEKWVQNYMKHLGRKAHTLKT
Sequence of CCL11 (Homo sapiens) (chain, as listed by the source): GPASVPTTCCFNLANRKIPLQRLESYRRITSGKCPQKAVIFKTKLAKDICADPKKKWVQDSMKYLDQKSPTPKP
Sequence of CCL7 (P80098 24-99): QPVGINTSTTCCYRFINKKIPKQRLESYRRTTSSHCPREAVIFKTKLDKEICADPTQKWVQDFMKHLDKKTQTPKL

B1: P1243 (evasin from Amblyomma americanum), purified, C-terminal StrepII:8xHis tag (natural protein)
chain: ETGRNHTEDNSTEYYDYEEARCACPARHLNNTNGTVLKLLGCHYFCNGTLCTAPDGYPCYNLTAQQVRTLTTYPNTSCAVGVCMKGTCVKNGTMEQCFKTP
Take B1: the equilibrium dissociation constant (Kd) in [1] turned out to be 15.7 nM; in assay [2], 49.3 nM; in assay [3], 26 nM; in assay [4], 20 nM; in [5], 0.772 nM; in [6], 56.3 nM. In addition, the Kd in assay [7] stood at 12.2 nM; in assay [8], 1.3 nM; in assay [9], 3.9 nM; in assay [10], 0.663 nM; in assay [11] it was 3.79 nM; in assay [12], 6.1 nM. Besides, the Kd in [13] is 13 nM; in assay [14] it was 1.4 nM; in assay [15] it was 24 nM; in assay [16] it was 13 nM; in assay [17] it was 8.97 nM; in assay [18], 4.33 nM. Also, the Kd is 35.5 nM in assay [19], 9.78 nM in assay [20] and 6.69 nM in assay [21].

As a reminder, the Kd is the constant that tells how readily two partners part at equilibrium. A higher Kd goes with lower affinity.
